Reference: EP3342782A1

Molecular target: extracellular region of human V158 FcγRIIIa with C-terminal 6x His-tag and GST-tag (human) (UniProt P08637)
Assay: SPR; fold vs WT

Row | Substance | Fold WT
1 | E258Y alemtuzumab (antibody) | 1.77 fold
2 | I332D alemtuzumab (antibody) | 11.2 fold
3 | S267E alemtuzumab (antibody) | 2.62 fold
4 | H268D alemtuzumab (antibody) | 5.66 fold
5 | K246Y alemtuzumab (antibody) | 7.07 fold

Second part, the substance after the results:

Row | Fold WT | Substance
6 | 3.28 fold | S239E alemtuzumab (antibody)
7 | 384 fold | E272H alemtuzumab (antibody)
8 | 1.86 fold | T260H alemtuzumab (antibody)
9 | 3.13 fold | K326E alemtuzumab (antibody)
10 | 2.56 fold | E283L alemtuzumab (antibody)
11 | 1.41 fold | R255Y alemtuzumab (antibody)
12 | 5.5 fold | E258H alemtuzumab (antibody)
13 | 22.4 fold | K246H alemtuzumab (antibody)

Molecular target: human FcγRIIIa on PBMCs expressing heterozygous V158/F158 FcγRIIIa (human) (UniProt P08637)
Assay: cell-based or functional assay

Row | Substance | ADCC log(EC50)
14 | V264I/I332E alemtuzumab (antibody) | 0.6 log(ng/ml)
15 | S239D/I332E alemtuzumab (antibody) | 0.49 log(ng/ml)
